Assay results reported in patent US20230140224A1 (APRILBIO, published 2023).

Biological target: T1, human serum albumin (human, UniProt P02768 25-609)
T1 construct: also called HSA; human albumin
Test: ELISA, albumin coated on plate, Fab in solution

T1 sequence (P02768 25-609 limits assumed): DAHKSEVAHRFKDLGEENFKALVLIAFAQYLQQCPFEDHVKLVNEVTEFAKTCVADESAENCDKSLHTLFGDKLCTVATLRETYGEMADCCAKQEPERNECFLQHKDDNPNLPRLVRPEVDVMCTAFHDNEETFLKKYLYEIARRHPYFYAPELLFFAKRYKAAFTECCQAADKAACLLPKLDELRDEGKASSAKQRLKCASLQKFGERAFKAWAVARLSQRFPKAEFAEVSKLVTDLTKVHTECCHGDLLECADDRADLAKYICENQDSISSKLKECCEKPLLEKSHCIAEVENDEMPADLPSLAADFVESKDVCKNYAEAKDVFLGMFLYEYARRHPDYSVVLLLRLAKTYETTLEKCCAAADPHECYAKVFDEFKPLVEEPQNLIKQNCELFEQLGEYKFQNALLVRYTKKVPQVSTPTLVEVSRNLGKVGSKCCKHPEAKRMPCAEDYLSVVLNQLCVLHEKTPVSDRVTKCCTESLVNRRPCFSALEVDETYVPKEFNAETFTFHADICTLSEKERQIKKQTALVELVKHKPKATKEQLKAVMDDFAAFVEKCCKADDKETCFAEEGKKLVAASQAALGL

binding result: binds
B1: FL335 Fab antibody fragment (Fab, V domains shown)
VH: QVQLVQSGGGPVKPGGSLRLSCAASGFMFRAYSMNWVRQAPGKGLEWVSSISSSGRYIHYADSVKGRFTISRDNAKNSLYLQMNSLRAEDTAVYYCARETVMAGKALDYWGQGTLVTVSS
VL: DIVLTQSPGTLSLSPGETATLSCRASQSVGSNLAWYQQKPGQAPRLLIYGASTGATGVPARFSGSRSGTDFTLTITSLQPEDFATYYCQQYYSFLAKTFGQGTQLEIKR
notes: also called FL355 Fab antibody fragment; feline chimeric antibody fragment
